Reference: paper PMC9133036 (Nature Communications, 2022)

Biological target: T1, full-length wild-type human OX2R (pCDNA3, HEK293) (human) (UniProt O43614)
T1 sequence: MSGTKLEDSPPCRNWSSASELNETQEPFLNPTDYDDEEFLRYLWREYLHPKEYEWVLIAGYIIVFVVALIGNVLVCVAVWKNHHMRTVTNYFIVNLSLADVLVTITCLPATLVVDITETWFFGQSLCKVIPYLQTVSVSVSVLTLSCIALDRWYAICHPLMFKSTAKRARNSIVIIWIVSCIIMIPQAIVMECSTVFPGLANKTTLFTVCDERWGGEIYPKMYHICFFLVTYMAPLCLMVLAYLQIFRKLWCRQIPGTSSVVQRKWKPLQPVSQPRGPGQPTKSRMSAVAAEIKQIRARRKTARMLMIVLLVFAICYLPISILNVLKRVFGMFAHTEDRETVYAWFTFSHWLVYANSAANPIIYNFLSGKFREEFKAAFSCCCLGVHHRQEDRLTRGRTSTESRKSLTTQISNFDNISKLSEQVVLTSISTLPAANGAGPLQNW

Chain of orexin B (O43612 70-97): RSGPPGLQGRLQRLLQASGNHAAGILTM

orexin B (from UniProt O43612 70-97) (peptide)
Gq-mediated inositol phosphate (IP) accumulation in HEK293 cells transfected with OX2R and Gαq; EC50 of orexin B: 8.2 nM
